Test results published in PMC6791878, “Evaluation of integrin αvβ6 cystine knot PET tracers to detect cancer and idiopathic pulmonary fibrosis” (Nature Communications, 2019).

Experiments:
Assay in all cases: flow cytometry on cells; equilibrium titration: 100 nM to 300 pM recombinant integrin αvβ6 incubated with 10^5 yeast cells displaying the knottin plus 10^6 un-induced yeast cells; integrin binding buffer (25 mM Tris pH 7.4, 150 mM NaCl, 2 mM CaCl2, 1 mM MgCl2, 1 mM MnCl2, 0.1% BSA); fluorescein anti-αv antibody, binding normalised to cMyc expression
[1] = target: R01 cystine knot peptide displayed on the yeast surface
[2] = target: R01-MG cystine knot peptide displayed on the yeast surface
[3] = target: R01-MR cystine knot peptide displayed on the yeast surface

For “Recombinant human integrin αvβ6 (from UniProt P06756 31-1048; P18564 22-709) (complex)”, the Kd [1] was 1 nM, the Kd [2] was 1.24 nM and the Kd [3] was 1 nM.
